Assay results: patent publication US20140223606, “COMPOSITIONS AND METHODS COMPRISING SEQUENCES HAVING MEGANUCLEASE ACTIVITY” (PIONEER HI BRED INTERNATIONAL INC, published 2014)

Tests used:
Test in all cases: cell_activity; yeast 37 C; 28 C: 4
Conditions in all cases: tags: NLS, 6xHis
ZM6.3(H1) = molecular target: T1, ZM6.3(H1) (artificial)
T1 chain: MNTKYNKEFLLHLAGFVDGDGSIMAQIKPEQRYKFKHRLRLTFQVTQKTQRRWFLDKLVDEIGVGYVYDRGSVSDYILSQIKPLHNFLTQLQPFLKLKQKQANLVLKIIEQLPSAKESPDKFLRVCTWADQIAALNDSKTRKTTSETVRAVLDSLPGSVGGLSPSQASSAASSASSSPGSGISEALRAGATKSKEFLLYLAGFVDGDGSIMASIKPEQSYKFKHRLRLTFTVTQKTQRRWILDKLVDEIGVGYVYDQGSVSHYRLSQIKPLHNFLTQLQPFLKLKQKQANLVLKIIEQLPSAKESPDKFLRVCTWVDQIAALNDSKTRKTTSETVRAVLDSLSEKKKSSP
Description: (§1) A 3 mL culture of selective media (MP Biomedical) was inoculated with a single colony of the yeast screening strain and grown at 30° C. overnight. On the following day, a 50 ml YPD culture (MP Biomedical) was started with 2 ml of the overnight culture and grown at 30° C. overnight. On the following day, the cells were harvested by centrifugation at 4000 rpm. The cells were resuspended in 100 ml ice cold water and centrifuged again. The cells were then washed in 1.2 M sorbitol, followed by treatment with 2 ml of 10 mM Tris pH 8.0, 1 mM EDTA, 100 mM Lithium acetate, 10 mM DTT, 0.6M sorbitol for 30 minutes at 30° C. with shaking. The cells were recovered by centrifugation, washed in 40 ml 1.2M sorbitol and finally resuspended in 250 microliters of 1.2M sorbitol. 50 microliter aliquots were transferred to test tubes on ice. Up to 5 microliters of DNA (100-500 nanograms) were added. The suspension was transferred to a 0.2 cm electroporation cuvette, on ice. Electroporation was performed with a pulse charge at 1.5 kV, 200 ohms, 25 microF (pulse time of 5 milliseconds). 1 mL YPD media (MP Biomedical) was added and the cells were allowed to recover at 30° C. for 1-2 hr. The cells were centrifuged, resuspended in 100 uL 1M sorbitol and plated on selective media lacking leucine and containing 2% galactose. The resulting yeast colonies were incubated at various temperatures ranging from 22 to 37 degrees Celsius for 7-10 days. I-CreI and meganucleases derived from it have maximal activity at or above 37 degrees Celsius. Screening was performed at a range of temperatures from 22 to 37 degrees in order to observe increases in activity at lower temperatures which are relevant to certain biological systems (eg. plant cells, plant cell cultures, etc). At that time the red/white sectoring phenotype, indicative of meganuclease activity was observed. Colonies with increased white sectoring over the parental meganuclease (indicating colonies expressing a meganuclease with increased meganuclease activity), also referred to as “hits” and sometimes completely white, were isolated for further analysis.
(§2) A total of 15 Zm6.3 variants with increased activity were confirmed in the yeast system (as described in Example 6). Increased activity was observed across a range of temperatures: 28 degrees Celsius, 30 degrees Celsius and 37 degrees Celsius, as shown in Table 15.

ZM6.3(G1) = molecular target: T2, ZM6.3(G1) (artificial)
T2 chain: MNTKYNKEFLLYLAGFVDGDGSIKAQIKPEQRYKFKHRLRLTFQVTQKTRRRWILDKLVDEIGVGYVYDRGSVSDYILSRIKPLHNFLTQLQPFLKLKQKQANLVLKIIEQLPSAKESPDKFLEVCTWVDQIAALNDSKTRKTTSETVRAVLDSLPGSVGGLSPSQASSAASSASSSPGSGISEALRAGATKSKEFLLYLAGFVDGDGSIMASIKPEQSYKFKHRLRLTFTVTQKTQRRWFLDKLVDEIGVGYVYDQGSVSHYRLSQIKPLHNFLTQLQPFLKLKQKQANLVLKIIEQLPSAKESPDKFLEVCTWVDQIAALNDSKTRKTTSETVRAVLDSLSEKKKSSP
Description: as §1, §2

ZM6.3(G6) = molecular target: T3, ZM6.3(G6) (artificial)
T3 chain: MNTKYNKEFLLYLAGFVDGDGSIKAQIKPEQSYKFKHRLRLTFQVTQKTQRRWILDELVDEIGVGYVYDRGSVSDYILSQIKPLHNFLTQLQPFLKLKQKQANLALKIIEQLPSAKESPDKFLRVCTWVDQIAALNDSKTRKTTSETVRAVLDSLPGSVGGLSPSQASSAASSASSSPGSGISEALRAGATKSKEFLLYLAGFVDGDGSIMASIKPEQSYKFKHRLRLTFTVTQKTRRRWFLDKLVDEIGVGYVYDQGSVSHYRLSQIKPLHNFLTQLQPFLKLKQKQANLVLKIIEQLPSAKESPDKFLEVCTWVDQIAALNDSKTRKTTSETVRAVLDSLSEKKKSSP
Description: as §1, §2

ZM6.3(H5) = molecular target: T4, ZM6.3(H5) (artificial)
T4 chain: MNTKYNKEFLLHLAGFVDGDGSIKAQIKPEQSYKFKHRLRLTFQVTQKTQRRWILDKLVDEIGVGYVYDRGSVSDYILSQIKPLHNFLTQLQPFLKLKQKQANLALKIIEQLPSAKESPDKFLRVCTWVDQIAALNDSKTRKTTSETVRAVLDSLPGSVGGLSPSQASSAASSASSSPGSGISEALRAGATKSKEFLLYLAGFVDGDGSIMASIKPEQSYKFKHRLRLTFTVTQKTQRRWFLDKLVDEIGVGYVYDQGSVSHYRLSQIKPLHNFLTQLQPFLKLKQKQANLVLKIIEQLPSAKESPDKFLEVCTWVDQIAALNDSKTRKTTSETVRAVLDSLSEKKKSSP
Description: as §1, §2

ZM6.3(H6) = molecular target: T5, ZM6.3(H6) (artificial)
T5 chain: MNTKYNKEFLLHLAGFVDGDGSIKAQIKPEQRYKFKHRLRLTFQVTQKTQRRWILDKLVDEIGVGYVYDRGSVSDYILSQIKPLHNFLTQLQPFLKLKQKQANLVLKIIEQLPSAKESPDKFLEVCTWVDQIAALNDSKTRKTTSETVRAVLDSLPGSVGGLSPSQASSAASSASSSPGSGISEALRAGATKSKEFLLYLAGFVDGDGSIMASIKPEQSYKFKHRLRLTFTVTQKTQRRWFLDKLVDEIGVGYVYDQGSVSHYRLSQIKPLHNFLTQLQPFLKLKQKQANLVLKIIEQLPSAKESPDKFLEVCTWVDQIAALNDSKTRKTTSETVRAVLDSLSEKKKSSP
Description: as §1, §2

Measured: activity

B1: ZM6.3 recognition site (dsDNA)
DNA 1: CAGGCTCTCGTAAATGCGCCTG
DNA 2: CAGGCGCATTTACGAGAGCCTG
4 score 0-4: all assays above
